Measured values taken from PMC3857192.

Target: PAC-1
Assay: flow cytometry on cells
Conditions: read off a plot
[1] = FITC-PAC-1 5 µg/ml, DTT + PT25-2, parent: est. 36
[2] = FITC-PAC-1 5 µg/ml, DTT, parent: est. 13
[3] = FITC-PAC-1 5 µg/ml, mAb PT25-2, parent: est. 26
[4] = no treatment (CON), parent: est. 0

Row | response [1] [NNFI] | response [2] [NNFI] | response [3] [NNFI] | response (DTT + PT25-2, parent: est. 36) [NNFI] | response (DTT, parent: est. 12) [NNFI] | response (mAb PT25-2, parent: est. 26) [NNFI] | response [4] [NNFI] | response (FITC-PAC-1 5 µg/ml, no treatment (CON), parent: est. 0) [NNFI] | Substance
1 | 28 | 14 | 9.7 |  |  |  |  |  | normal integrin αIIbβ3 (from UniProt P08514;P05106) αIIb:K321C; β3:R360C
2 |  |  |  | 37 | 28 | 34 | 24 |  | normal integrin αIIbβ3 (from UniProt P08514;P05106) αIIb:F992A; αIIb:F993A
3 |  |  |  | 38 | 23 | 5.5 | 2.7 |  | normal integrin αIIbβ3 (from UniProt P08514;P05106) αIIb:K321C; αIIb:F992A; αIIb:F993A; β3:E358C
4 |  |  |  | 20 | 13 | 9.9 | 5.5 |  | normal integrin αIIbβ3 (from UniProt P08514;P05106) αIIb:K321C; αIIb:F992A; αIIb:F993A; β3:R360C
5 | 38 | 19 | 6.2 |  |  |  |  | 0.7 | normal integrin αIIbβ3 (from UniProt P08514;P05106) αIIb:K321C; β3:E358C
